Results reported in US10087245 (Hoffmann-La Roche, dated 2018).

Target: T1, Pick bodies (cellular inclusions of Pick's disease, only constituted of 3R tau proteins) (human, UniProt P10636-5 2-410, limits assumed)
T1 construct: Target in tissue sections (IHC)
Experiment: IHC on human paraffin sections, Pick's disease
Description: Immunohistochemistry was performed on formalin-fixed tissues (paraffin-embedded or frozen sections or vibratome sections). Standard IHC protocols were applied and adapted for each tissue conditions. As most of immunostaining experiments were performed using paraffin sections, a detailed protocol for paraffin-embedded material is described herein. Immunostaining of brain tissue was performed on 4 µm thick paraffin sections. Both human and mouse tissues were used (Human patients with AD or other tauopathies and Tg4510 mice (Santacruz et al. 2005 Science, 309, 476-481). Sections were de-paraffinized in xylene, rehydrated through ethanol (100%, 90%, and 70%), 5 min for each solution and finally brought to running tap water for 10 min. They were then incubated in 98% formic acid for 5 min, washed again under running tap water, quenched for endogenous peroxidase with 3% hydrogen peroxide and 20% methanol, and finally washed in water. Non-specific binding was blocked by incubating the sections for 30 min in 2% bovine serum albumin in TBS+0.5% Tween. Appropriate dilutions of primary antibodies (1-10 µg/ml of VHH with either His or Strep tag) were then applied and slices incubated overnight in a humidified chamber at 4° C. […]

T1 sequence (P10636 other isoform, or with tags, fused parts or gaps limits assumed): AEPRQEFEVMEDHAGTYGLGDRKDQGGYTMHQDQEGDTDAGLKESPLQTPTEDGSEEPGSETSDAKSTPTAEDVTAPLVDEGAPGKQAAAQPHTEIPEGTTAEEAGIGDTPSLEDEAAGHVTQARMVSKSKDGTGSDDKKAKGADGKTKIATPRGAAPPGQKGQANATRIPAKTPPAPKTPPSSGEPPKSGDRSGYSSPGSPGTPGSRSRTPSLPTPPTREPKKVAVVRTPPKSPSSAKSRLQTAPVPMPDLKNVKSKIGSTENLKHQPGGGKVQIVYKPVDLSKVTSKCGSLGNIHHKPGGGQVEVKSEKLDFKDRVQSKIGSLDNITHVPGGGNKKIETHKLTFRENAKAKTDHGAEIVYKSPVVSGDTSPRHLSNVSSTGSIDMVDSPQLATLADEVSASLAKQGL

binding result: no binding
B1: VHH Tau-A2 (VHH)
VHH: EVQLQASGGGLVQAGGSLRLSCAASGRSFSGSTMEWYRQAPGKERKFVAAIRTISSRTYYVDSVKGRFTISRDSTKNTVYLQLNSLKVEDTAVYYCAARFSGTIGTTSSVDYWGQGTQVTVSS
notes: Alpaca VHH, expressed in E. coli with a His-tag or a Strep-tag; monomeric by DLS; not shown: 6-Histidine tag (pET23d) or C-terminal Strep-tag (pASK IBA2)
